Experimental data reported in publication PMC509406.

Legend:
[1] = molecular target: rabbit actin (Cytoskeleton, catalog #AKL95) (rabbit) (UniProt P68135)
[2] = molecular target: F-actin (Oryctolagus cuniculus) (UniProt P68135); conditions: cited from earlier work
emerin (Homo sapiens) = emerin (Homo sapiens) (UniProt P50402); conditions: cited from earlier work
[3] = molecular target: rabbit actin (Cytoskeleton, catalog #AKL95) (rabbit) (UniProt P68135); remark: listed apart in the source

Chain of tropomodulin (P28289 whole entry): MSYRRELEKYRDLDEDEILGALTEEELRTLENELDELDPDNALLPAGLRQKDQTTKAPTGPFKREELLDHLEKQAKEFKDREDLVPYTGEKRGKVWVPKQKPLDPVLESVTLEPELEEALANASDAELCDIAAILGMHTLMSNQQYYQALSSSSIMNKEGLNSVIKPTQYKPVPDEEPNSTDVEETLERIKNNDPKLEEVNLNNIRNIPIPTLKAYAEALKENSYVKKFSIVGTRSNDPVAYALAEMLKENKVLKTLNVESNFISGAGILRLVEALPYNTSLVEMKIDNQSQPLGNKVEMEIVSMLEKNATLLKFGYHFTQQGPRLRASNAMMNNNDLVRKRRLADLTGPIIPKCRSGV
Chain of LAP2β (P42167 whole entry): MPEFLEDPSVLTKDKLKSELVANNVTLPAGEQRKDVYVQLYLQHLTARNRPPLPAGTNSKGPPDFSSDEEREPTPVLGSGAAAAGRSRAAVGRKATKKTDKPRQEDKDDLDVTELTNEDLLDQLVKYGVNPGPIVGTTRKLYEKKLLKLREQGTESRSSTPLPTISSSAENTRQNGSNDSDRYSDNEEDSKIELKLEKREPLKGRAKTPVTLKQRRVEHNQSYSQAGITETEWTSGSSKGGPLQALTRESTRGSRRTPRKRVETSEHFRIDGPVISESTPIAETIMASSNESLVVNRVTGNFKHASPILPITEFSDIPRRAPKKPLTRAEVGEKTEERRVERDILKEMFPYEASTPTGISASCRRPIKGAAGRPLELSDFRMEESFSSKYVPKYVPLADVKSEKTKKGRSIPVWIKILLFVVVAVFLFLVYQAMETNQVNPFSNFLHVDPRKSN
Chain of emerin (Homo sapiens) (P50402 whole entry): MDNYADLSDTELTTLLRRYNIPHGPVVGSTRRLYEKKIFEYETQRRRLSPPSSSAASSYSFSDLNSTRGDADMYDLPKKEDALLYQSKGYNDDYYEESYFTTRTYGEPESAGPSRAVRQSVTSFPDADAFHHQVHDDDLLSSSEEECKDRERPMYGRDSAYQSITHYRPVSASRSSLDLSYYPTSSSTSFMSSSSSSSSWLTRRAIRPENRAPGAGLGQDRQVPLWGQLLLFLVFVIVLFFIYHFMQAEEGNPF

“LAP2β (from UniProt P42167 1-454) (natural protein)” showed an actin polymerization assays (data not shown), activity against emerin (fold less active than emerin) [1] of 20.
For tropomodulin (from UniProt P28289), the Kd [2] is listed as 110 nM.
In the case of nesprin-1α (from UniProt Q8NF91), the Kd (emerin (Homo sapiens)) is given as 4 nM.
“tropomodulin (from UniProt P28289 1-359) (natural protein)” gave a length of green (pointed-end growth) segments on rhodamine–phalloidin filaments capped with capping protein, 1 μM tropomodulin [3] of 0.09 μm and a length of growing (green) segments on filaments formed from gelsolin–actin seeds, 1 μM tropomodulin [3] of 0.1 μm.
